The values that follow come from paper PMC3879392, “Mutant LV^476-7AA of A-subunit of Enterococcus hirae V1-ATPase: High affinity of A3B3 complex to DF axis and low ATPase activity” (SpringerPlus, 2013).

For the series, the system named is Nc1ncnc2c1ncn2[C@@H]1O[C@H](COP(=O)(O)OP(=O)(O)OP(=O)(O)O)[C@@H](O)[C@H]1O. Nature of the series: purified protein. Conditions: 25 mM MES-Tris pH 6.5, 4 mM MgSO4, 10% glycerol, 25 C.

As for “E. hirae V1-ATPase (A3B3DF complex) (Enterococcus hirae ATCC 9790)”, the Km (as a rule, the substrate concentration at which the rate is half of its maximum) was 400 µM.
